Results: US7622265B2, “Methods and compositions for modulating prostasin” (Genentech, Inc., priority 2005, dated 2009)
Numbering of substitutions follows the chain as printed. In names and notes the source's numbering stands. Where no end group is shown, it is not given here.

B1: HAI-2: hepatocyte growth factor activator inhibitor-2, a bi-Kunitz type serine protease inhibitor (protein, UniProt O43291 28-252, looked up)
Kunitz-type protease …: ADRERSIHDFCLVSKVVGRCRASMPRWWYNVTDGSCQLFVYGGCDGNSNNYLTKEECLKKCATVTENATGDLATSRNAADSSVPSAPRRQDSEDHSSDMFNYEEYCTANAVTGPCRASFPRWYFDVERNSCNNFIYGGCRGNKNSYRSEEACMLRCFRQQENPPLPLGSKVVVLAGLFVMVLILFLGASMVYLIRVARRNQERALRTVWSSGDDKEQLVKNTYVL
B2: sHAI-1B K401A: KD2 mutant of sHAI-1B, P1 residue Lys401 (in KD2) changed to Ala (protein)
chain: GPPPAPPGLPAGADCLNSFTAGVPGFVLDTNASVSNGATFLESPTVRRGWDCVRACCTTQNCNLALVELQPDRGEDAIAACFLINCLYEQNFVCKFAPREGFINYLTREVYRSYRQLRTQGFGGSGIPKAWAGIDLKVQPQEPLVLKDVENTDWRLLRGDTDVRVERKDPNQVELWGLKEGTYLFQLTVTSSDHPEDTANVTVTVLSTKQTEDYCLASNKVGRCRGSFPRWYYDPTEQICKSFVYGGCLGNKNNYLREEECILACRGVQGGPLRGSSGAQATFPQGPSMERRHPVCSGTCQPTQFRCSNGCCIDSFLECDDTPNCPDASDEAACEKYTSGFDELQRIHFPSDKGHCVDLPDTGLCAESIPRWYYNPFSEHCARFTYGGCYGNKNNFEEEQQCLESCRGISKKDVFGLRREIPIPSTGSVE
B3: sHAI-1B R260A: KD1 mutant of sHAI-1B, P1 residue Arg260 (in KD1) changed to Ala (protein)
chain: B2 chain with R225A, A366K

Columns and labels:
prostasin [1] = biological target: T1, prostasin (Homo sapiens, UniProt Q16651); test: Enzyme inhibition assay (amidolytic activity of prostasin towards S2765); type: biochemical; parameters: made in house; host or cells: CHO cells (transient transfection, pRK5E); purified from conditioned medium on aprotinin-agarose; conditions: for inhibition of prostasin enzymatic activity (in words): substrate S2765
Description: The increase in absorbance at 405 nm was monitored on a kinetic microplate reader (Molecular Devices, Sunnyvale, Calif.). The linear rates of the increase in absorbance were expressed as percentage activities (100%×vi/v0). […] At least three independent experiments were performed for each inhibitor.
Target sequence in this assay (Q16651 45-322 limits assumed, other chains not shown): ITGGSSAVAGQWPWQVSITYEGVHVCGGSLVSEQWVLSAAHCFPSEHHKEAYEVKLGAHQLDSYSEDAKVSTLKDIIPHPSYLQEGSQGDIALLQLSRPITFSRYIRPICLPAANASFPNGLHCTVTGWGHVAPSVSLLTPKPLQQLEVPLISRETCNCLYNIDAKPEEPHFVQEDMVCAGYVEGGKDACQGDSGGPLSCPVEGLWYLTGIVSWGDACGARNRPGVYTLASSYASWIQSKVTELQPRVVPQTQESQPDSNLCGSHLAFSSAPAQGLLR

prostasin [2] = biological target: T1, prostasin; conditions: purified enzyme system; cited from earlier work
Target sequence in this assay (Q16651 33-343, species assumed): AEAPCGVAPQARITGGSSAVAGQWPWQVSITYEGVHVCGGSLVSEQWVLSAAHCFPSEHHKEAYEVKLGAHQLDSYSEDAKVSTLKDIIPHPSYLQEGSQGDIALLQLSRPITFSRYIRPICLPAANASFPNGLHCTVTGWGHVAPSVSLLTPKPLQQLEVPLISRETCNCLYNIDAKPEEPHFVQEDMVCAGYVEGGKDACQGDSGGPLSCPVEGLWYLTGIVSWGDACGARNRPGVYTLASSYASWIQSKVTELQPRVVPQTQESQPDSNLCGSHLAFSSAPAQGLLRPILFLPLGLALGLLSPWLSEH

prostasin [3] = biological target: T1, prostasin; test: Prostasin binding assay (complex formation, immunoblotting); parameters: made in house; host or cells: CHO cells (transient transfection, pRK5E); purified from conditioned medium on aprotinin-agarose; conditions: 20 nM sHAI-1B, 37° C., 0.5 or 2 h, immunoblot with anti-HAI-1B polyclonal antibody
Description: Prostasin binding assay—Purified prostasin and sHAI-1B were diluted in 20 mM Tris-Cl, pH 9.0 containing 0.01% Triton X-100 (TT buffer) to the final concentration as indicated. The mixture was incubated at 37° C. for 0.5 h or 2 h and the reaction was stopped by addition of SDS sample buffer with DTT. 30 μl of each sample was analyzed by immunoblotting.
Prostasin and sHAI-1B form 1:1 complexes—Soluble prostasin was purified from conditioned medium of CHO cells transiently transfected with full-length prostasin. […] Prostasin was incubated with sHAI-1B comprising the entire extracellular domain of HAI-1B (Kirchhofer, Peek et al. 2003) at different molar ratios (FIG.2A). Increasing concentrations of prostasin shifted the sHAI-1B band (55 kDa) to the higher molecular mass species of 85 kDa, indicating the formation of prostasin:sHAI-1B complexes. At a 10-fold molar excess of prostasin, almost all sHAI-1B was bound to prostasin. Immunoblotting with anti-prostasin antibody confirmed that the 85 kDa band comprised complexes of sHAI-1B and prostasin (data not shown).
Target sequence in this assay (Q16651 45-322 limits assumed, other chains not shown): as the sequence (Q16651 45-322 limits assumed, other chains not shown) above

| Molecule | inhibition of prostasin enzymatic activity (in words) (prostasin [1]; prostasin 3 nM) | IC50 (prostasin [1]; prostasin 3 nM, substrate S2765 0.05 mM, TT buffer, 20 min preincubation at room temperature, averages ± S.D. of at least three independent experiments, read-out: IC50 (nM), effects of inhibitors on the activity of prostasin) [nM] | inhibition of prostasin activity (in words) (prostasin [2]) | complex formation with prostasin (prostasin [3]) | fold less potent than wildtype sHAI-1B (prostasin [1]; IC50 compared with wildtype sHAI-1B) |
| --- | --- | --- | --- | --- | --- |
| APPI: Alzheimer's amyloid β protein precursor inhibitor, a Kunitz domain (VREVCSEQAETGPCRAMISRWYFDVTEGKCAPFFYGGCGGNRNNFDTEEYCMAVCGSA; ends and bridges not checked; cysteine pairing not given here) [reference compound] | did not inhibit prostasin | > 1000 | – | – | – |
| B1 | – | – | potently inhibit prostasin activity | – | – |
| B2 | inhibitory potency comparable to the wildtype | – | – | still formed an 85 kDa complex with prostasin | – |
| B3 | – | – | – | did not | at least 18 fold |
